The target of experiment [1] is T1, His-tagged neuropilin-1 b1b2 domain (NRP-1 WT) (UniProt O14786 273-586, limits assumed, FAM (5-(and-6)-carboxyfluorescein) label, amine-reactive dye).
T1 construct: domain: b1b2 domain; also called WT NRP-1; wild type NRP-1; not shown: His-tag
T1 sequence (looked up): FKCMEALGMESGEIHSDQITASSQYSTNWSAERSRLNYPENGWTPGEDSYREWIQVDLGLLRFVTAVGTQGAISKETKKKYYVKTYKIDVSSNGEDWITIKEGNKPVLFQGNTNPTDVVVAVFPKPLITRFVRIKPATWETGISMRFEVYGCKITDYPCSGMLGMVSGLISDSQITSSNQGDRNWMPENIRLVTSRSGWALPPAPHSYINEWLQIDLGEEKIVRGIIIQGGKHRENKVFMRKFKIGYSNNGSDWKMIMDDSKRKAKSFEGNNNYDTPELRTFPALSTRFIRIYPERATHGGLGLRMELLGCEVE
Nature of the experiment: ELISA: immobilised peptide (10 µg/well), FAM-labelled NRP-1, fluorescence intensity. The method, then: (§1) In vitro binding of DCN-tCRK and peptides to NRP-1 was analyzed using ELISA analysis. 96-well, black FLUOTRAC™ 600, high binding plates (Greiner Bio-One, Kremsmünster, Austria) were coated with […] of 100 μg/ml DCN-tCRK in PBS at 4° C. overnight. 10 μg/well RPARPAR (SEQ ID NO: 25) and […] (SEQ ID NO: 26) peptides were coated in parallel as a positive and negative control, respectively. BSA was used as an immobilization control. The plates were washed 3 times with phosphate buffered saline (PBS) and blocked for 1 h at 37° C. with 300 μl of blocking solution (1×PBS, 1% BSA, 0.1% Tween-20). His-tagged neuropilin-1 b1b2 domain (NRP-1 WT) and triple mutant NS346A-E348A-T349A neuropilin-1 b1b2 domain (NRP-1 mutant) were expressed and purified at the Protein Production and Analysis Facility at the Sanford Burnham Prebys Medical Discovery Institute (La Jolla, Calif.) as described previously (Teesalu et al., 2009, PNAS 106:16157-16162). The recombinant proteins NRP1 WT, NRP1 mutant, and DCN-tCRK were FAM (5-(and-6)-Carboxyfluorescein, #90024, Biotium Inc, CA, USA) labeled by mixing 1:10 ratio of amine-reactive FAM dye (diluted in DMSO final concentration 0.2%) and protein. […] After adding 100 μl PBS in each well, the plate was immediately read with top read mode using a fluorescence reader (Flex Station II, Molecular Devices; peak excitation=485 nm, peak emission=530 nm, cut off=515).
(An ELISA detects its analyte on a solid surface through an enzyme-linked reagent.)

For experiment [2], the target named is T2, 6xHistag-DCN-tCRK fusion protein (human, UniProt P07585 31-359, glycosaminoglycan chain (mostly chondroitin sulfate) attached to the DCN core, residue not stated; FAM-labelled in the cell assay only).
T2 construct: Produced in HEK293F cells; Immobilised unlabelled on the plate in the ELISA; also called tCRK-DCN; FAM-DCN-tCRK
T2 sequence (P07585 other isoform, or with tags, fused parts or gaps): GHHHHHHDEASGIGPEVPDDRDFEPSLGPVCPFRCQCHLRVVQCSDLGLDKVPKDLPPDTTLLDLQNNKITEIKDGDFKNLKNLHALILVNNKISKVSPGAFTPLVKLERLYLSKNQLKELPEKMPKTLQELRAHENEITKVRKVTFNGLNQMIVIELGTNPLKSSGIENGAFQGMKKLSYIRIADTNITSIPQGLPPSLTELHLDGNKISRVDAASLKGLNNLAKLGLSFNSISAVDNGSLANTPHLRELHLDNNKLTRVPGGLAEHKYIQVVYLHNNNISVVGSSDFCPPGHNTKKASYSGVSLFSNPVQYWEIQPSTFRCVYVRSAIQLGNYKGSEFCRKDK
Description: ELISA: immobilised DCN-tCRK (100 µg/ml coating), FAM-labelled NRP-1 mutant, fluorescence intensity, compared with BSA control. The method, then: as §1

Ends that are not written are not given here.

Consider RPARPARA (not fully specified, also called negative peptide) [RPARPARA peptide], for which the binding result in experiment [1] is given as “no binding (tested: 20 µg/well FAM-labelled NRP1 WT)”.

B1: triple mutant NS346A-E348A-T349A neuropilin-1 b1b2 domain (NRP-1 mutant) (receptor, UniProt O14786 273-586, looked up)
chain: FKCMEALGMESGEIHSDQITASSQYSTNWSAERSRLNYPENGWTPGEDSYREWIQVDLGLLRFVTAVGTQGAIAKAAKKKYYVKTYKIDVSSNGEDWITIKEGNKPVLFQGNTNPTDVVVAVFPKPLITRFVRIKPATWETGISMRFEVYGCKITDYPCSGMLGMVSGLISDSQITSSNQGDRNWMPENIRLVTSRSGWALPPAPHSYINEWLQIDLGEEKIVRGIIIQGGKHRENKVFMRKFKIGYSNNGSDWKMIMDDSKRKAKSFEGNNNYDTPELRTFPALSTRFIRIYPERATHGGLGLRMELLGCEVE
modifications: FAM (5-(and-6)-carboxyfluorescein) label, amine-reactive dye
notes: domain: b1b2 domain; Printed as 'NS346A-E348A-T349A'; also called mutant NRP-1; not shown: His-tag
For B1, the binding result in experiment [2] was “no binding (tested: 20 µg/well FAM-labelled NRP1 mutant)”.
